Legend:
Conditions in all cases: EMSA: 4 nM 32P-RNA, 1X RNA Structure Buffer, 1 ug yeast RNA in 10 ul, 37 C 15 min (plus 1 h room temperature with mRNA); native 6% PAGE, 0.5X TBE, 4 C; pH and …
Hfq [1] = target: Hfq (UniProt P0A6X3); assay: footprinting (RNase T1)
Hfq [2] = target: Hfq (UniProt P0A6X3); assay: EMSA
Hfq [3] = assay: EMSA

Chain of Hfq (UniProt P0A6X3) (P0A6X3 2-102): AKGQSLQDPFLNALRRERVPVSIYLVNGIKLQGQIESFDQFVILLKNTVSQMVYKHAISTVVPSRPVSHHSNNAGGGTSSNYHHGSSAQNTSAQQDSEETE

## GGGAUUCAGGCAAUGAAUUACUUUUGCAAGCCAUCGCAUUCUCUUAUGUUAUUAAUGAGUUAUGCUGAUUUGUUAAGCAGUUUUAUCAGGCUUGAAAUGGCGUCCAGCCCCGACAGGUGAAUCGUCGGGGCUGAUUUUUUC [SdsN137]
Hfq [1]
  binding: binds
Hfq [2]
  Kd: 80 nM

## GGGUUCAAACUAUCACAUAAAUAAGAUUUAUAUAUAAUUUAUAUUAUUCAGGCAAUGAAUUACUUUUGCAAGCCAUCGCAUUCUCUUAUGUUAUUAAUGAGUUAUGCUGAUUUGUUAAGCAGUUUUAUCAGGCUUGAAAUGGCGUCCAGCCCCGACAGGUGAAUCGUCGGGGCUGAUUUUUUC [SdsN178]
Hfq [1]
  binding: binds
Hfq [2]
  Kd: 28 nM

## SdsN137
Hfq [3]
  Kd: 80 nM

## SdsN178
Hfq [3]
  Kd: 28 nM

— publication PMC5001591
